Data as given in paper doi:10.1101/335232 (bioRxiv, 2018).

Target: the molecule itself
Assay: SEC-MALS

B1: Human apolipoprotein-D (apoD) from breast cyst fluid (natural protein, UniProt P05090 21-189, looked up)
chain: QAFHLGKCPNPPVQENFDVNKYLGRWYEIEKIPTTFENGRCIQANYSLMENGKIKVLNQELRADGTVNQIEGEATPVNLTEPAKLEVKFSWFMPSAPYWILATDYENYALVYSCTCIIQLFHVDFAWILARNPNLPPETVDSLKNILTSNNIDVKKMTVTDQVNCPKLS
modifications: N-linked glycosylation at N45 and N78 (mature numbering)
stoichiometry N: 4
